Laboratory results: patent US20250101134A1, “ANAPLASTIC LYMPHOMA KINASE ANTIBODIES AND METHODS OF USE THEREOF” (The Children's Hospital of Philadelphia, priority 2022, published 2025)

How the values were obtained:
[1] = target: T1, ALK extracellular domain expressed on the cell surface of 293T cells (293T-ALK) (Homo sapiens, UniProt Q9UM73); assay: cell-based or functional assay
[2] = target: cell surface ALK on neuroblastoma cells (IMR32, SY5Y-D3, SY5Y) (human) (UniProt Q9UM73); assay: cell-based or functional assay
Sequence of cell surface ALK on neuroblastoma cells (IMR32, SY5Y-D3, SY5Y) (human) (Q9UM73 19-1620): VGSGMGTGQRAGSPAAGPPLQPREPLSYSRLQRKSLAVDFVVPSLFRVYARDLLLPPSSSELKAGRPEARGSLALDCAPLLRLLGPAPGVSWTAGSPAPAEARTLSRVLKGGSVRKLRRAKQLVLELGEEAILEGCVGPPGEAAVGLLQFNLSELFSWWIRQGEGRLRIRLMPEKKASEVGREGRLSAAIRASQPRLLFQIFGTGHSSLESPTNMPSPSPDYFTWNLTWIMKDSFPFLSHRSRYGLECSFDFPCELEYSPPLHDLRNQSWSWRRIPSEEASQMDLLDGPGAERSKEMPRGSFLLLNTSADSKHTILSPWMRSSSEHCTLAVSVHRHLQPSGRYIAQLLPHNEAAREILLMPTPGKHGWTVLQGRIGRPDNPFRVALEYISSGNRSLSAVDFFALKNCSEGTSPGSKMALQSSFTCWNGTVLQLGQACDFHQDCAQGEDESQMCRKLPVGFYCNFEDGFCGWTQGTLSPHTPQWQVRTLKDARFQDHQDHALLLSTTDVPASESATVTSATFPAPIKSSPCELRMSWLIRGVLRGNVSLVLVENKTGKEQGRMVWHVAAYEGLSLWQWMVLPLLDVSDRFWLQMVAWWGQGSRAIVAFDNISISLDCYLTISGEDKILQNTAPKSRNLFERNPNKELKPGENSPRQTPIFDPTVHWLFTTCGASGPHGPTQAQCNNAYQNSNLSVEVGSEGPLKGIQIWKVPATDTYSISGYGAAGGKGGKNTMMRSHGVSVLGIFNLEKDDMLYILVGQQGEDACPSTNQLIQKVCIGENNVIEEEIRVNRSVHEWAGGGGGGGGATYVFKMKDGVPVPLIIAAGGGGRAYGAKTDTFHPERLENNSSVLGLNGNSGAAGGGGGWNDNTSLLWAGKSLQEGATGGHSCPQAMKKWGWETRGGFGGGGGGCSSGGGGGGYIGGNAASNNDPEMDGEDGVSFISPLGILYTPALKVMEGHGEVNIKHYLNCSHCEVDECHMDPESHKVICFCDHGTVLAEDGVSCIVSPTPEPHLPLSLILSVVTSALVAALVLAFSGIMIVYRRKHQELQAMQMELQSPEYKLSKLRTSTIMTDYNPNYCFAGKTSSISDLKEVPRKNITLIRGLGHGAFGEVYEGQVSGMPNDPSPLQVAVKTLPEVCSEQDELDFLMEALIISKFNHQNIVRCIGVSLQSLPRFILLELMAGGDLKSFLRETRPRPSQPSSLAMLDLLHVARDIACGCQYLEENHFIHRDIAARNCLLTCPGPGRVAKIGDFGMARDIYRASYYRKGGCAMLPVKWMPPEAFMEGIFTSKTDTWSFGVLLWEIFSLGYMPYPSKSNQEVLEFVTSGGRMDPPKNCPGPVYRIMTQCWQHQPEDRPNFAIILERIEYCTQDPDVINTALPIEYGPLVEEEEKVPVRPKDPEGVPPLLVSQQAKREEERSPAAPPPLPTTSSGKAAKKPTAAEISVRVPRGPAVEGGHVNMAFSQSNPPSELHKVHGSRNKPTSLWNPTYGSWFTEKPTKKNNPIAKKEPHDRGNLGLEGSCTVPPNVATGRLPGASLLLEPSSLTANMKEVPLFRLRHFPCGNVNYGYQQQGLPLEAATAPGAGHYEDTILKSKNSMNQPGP

293T cells [3] = assay: Flow cytometry binding of VHs to 293T cells (non-specific binding); conditions: VH at 1 μM, anti-FLAG-PE detection
Method: (§1) FIG. 1A provides a schematic of ALK. MAM1, LDLa, MAM2, G-rich, G-T domains and full-length ALK extracellular domain (ALK-Ecto) were expressed separately for phage panning. Briefly, 293T and 293T-ALK cells were stained with different VH antibodies at a concentration of 1 μM in […] PBS for 30 minutes on ice. The cells were washed with 1 mL PBS three times and incubated with anti-FLAG-PE antibody (1:200, BioLegend) for 30 minutes on ice. The FLAG tag comprises the sequence: DYKDDDDK (SEQ ID NO: 9). The stained cells were then washed with 1 mL PBS three times. Antibody binding was detected on a BD™ LSR II (BD Biosciences, San Jose, CA). Fluorescence activated cell sorting (FACS) data analysis was performed using FlowJo_V10_CL.
(§2) FIGS. 1B and 1C show the flow cytometry results with various VHs binding to ALK extracellular domain expressed on the cell surface of 293T cells (293T-ALK). VH9 and VH20 were identified with the G-rich domain antigen while VH5 and VH78 were identified with the G-T domain antigen.

[4] = Aggregation by dynamic light scattering (DLS); assay type: physicochemical; conditions: 5 mg/mL in PBS, 37° C., day 0 to day 14
Method: The 4 VHs were studied by dynamic light scattering (DLS). Briefly, VH antibodies were buffer changed with PBS and filtered with a […] filter.
Antibody concentration was adjusted to 5 mg/mL. 500 μL samples were incubated at 37° C. for DLS. Samples were measured at day 0, day 1, day 4, day 7, and day 14 on Zetasizer Nano-ZS ZEN 3600 (Malvern Instruments Limited; Malvern, UK) to determine the size distributions of protein particles.

[5] = Size exclusion chromatography (SEC); assay type: physicochemical; conditions: Superdex 200 Increase 10/300 GL, DPBS
Method: VH20 was also studied by size exclusion chromatography (SEC). 200 μL (1 μg/mL) filtered samples were used for analysis. A Superdex® 200 Increase 10/300 GL column (GE Healthcare, Cat. No. 28990944) was used for the SEC. The column was calibrated with protein molecular mass standards of ferritin (440 kDa), aldolase (158 kDa), conalbumin (75 kDa), ovalbumin (44 kDa), carbonic anhydrase (29 kDa), and ribonuclease A (13.7 kDa). Protein was eluted by Dulbecco's phosphate-buffered saline (DPBS) buffer at a flow rate of 0.5 mL/minute.
Size exclusion chromatography (SEC) was also performed to characterize VH20-OKT3-Fc BiTE. Briefly, 200 μL (1 μg/mL) filtered samples were used for analysis. Superdex® 200 Increase 10/300 GL columns (GE Healthcare, Cat. No. 28990944) were used. The column was calibrated with protein molecular mass standards of ferritin (440 kDa), aldolase (158 kDa), conalbumin (75 kDa), ovalbumin (44 kDa), carbonic anhydrase (29 kDa), and ribonuclease A (13.7 kDa). Protein was eluted by DPBS buffer at a flow rate of 0.5 mL/minute.

ALK = assay: BLItz competition with KTN0239-IgG for ALK; assay type: binding; conditions: Protein A biosensor, KTN0239-IgG loaded, then ALK, then VH20
Text: The ability of VH20 to compete with KTN0239 was also studied. KTN0239 is a humanized variant of KTN0125 (Sano et al. (2016) Cancer Res., 76(14 Suppl):Abstract2690) and can bind the G rich domain of ALK. A Protein A biosensor (18-5010, BLItz® system, ForteBio; Freemont, CA) was used to immobilization KTN0239-IgG. DPBS (pH=7.4) was used for the baseline and determine dissociation. The detection conditions used were (I) baseline 30 seconds; (II) loading KTN0239-IgG for 120 seconds; (III) baseline 30 seconds; (IV) association for 120 seconds with ALK; and (V) association for 120 seconds with VH20.

[6] = target: T2, cell surface ALK on IMR32 cells (Homo sapiens, UniProt Q9UM73); assay: FACS binding to IMR32 cells; conditions: 1 μM, positive cell line
T2 construct: endogenous in cells; host or cells: IMR32
T2 sequence (Q9UM73 19-1620): as above
Method: (§3) The ability of VH20 bind ALK expressing cells was also studied by FACS. SK-N-AS (negative cell line), IMR32 (positive cell line), SY5Y-D3 (positive cell line) cells were stained with VH20 at a concentration of 1 μM in 200 μL PBS for 30 minutes on ice. The cells were washed with 1 mL PBS three times and incubated with anti-Flag-PE antibody (1:200, BioLegend) for 30 minutes on ice. The cells were again washed with 1 mL PBS three times. Antibody binding was detected on a BD™ LSR II (San Jose, CA). FACS data analysis was performed using FlowJo_V10_CL.

[7] = system: cell surface ALK on SY5Y-D3 cells; assay: FACS binding to SY5Y-D3 cells; conditions: 1 μM, positive cell line
Sequence of cell surface ALK on SY5Y-D3 cells (Q9UM73 19-1038 limits assumed): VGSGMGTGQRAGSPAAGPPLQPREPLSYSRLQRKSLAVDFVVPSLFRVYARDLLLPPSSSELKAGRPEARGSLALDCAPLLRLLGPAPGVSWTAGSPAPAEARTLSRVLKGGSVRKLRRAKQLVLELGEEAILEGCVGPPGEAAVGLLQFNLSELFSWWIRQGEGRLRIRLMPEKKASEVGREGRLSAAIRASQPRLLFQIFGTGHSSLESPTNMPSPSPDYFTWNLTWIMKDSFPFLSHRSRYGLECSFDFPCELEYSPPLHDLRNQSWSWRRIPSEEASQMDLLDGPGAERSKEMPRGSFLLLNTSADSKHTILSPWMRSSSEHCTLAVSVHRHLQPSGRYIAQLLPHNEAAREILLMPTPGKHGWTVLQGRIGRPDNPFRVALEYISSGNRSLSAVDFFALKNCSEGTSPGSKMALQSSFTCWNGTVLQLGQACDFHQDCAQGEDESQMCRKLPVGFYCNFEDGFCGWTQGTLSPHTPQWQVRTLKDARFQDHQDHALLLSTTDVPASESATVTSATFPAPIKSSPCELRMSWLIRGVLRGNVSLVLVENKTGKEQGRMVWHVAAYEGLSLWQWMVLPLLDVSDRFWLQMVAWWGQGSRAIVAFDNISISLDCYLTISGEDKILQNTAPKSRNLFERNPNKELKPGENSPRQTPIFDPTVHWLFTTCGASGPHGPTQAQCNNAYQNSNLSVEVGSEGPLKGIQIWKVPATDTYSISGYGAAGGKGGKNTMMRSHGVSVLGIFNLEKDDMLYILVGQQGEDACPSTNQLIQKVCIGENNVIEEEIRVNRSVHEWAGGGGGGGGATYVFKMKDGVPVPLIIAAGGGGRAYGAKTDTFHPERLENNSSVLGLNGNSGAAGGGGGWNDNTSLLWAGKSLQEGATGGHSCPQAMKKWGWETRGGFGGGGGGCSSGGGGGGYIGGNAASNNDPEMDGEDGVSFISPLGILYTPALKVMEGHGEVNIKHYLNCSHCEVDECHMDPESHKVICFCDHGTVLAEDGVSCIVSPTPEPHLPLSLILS
Method: as §3

SK-N-AS cells = assay: FACS binding to SK-N-AS cells (negative cell line); conditions: 1 μM
Method: as §3

293T-ALK cells [8] = assay: Internalization of pHrodo Deep Red labelled VH20, 293T-ALK; assay type: cell-based; conditions: pHrodo Deep Red conjugated VH20, 24 hours, flow cytometer
Method: (§4) VH20 internalization was also characterized. For the internalization studies, VH20 was conjugated with pHrodo™ Deep Red dye using the pHrodo™ Deep Red Antibody Labeling Kit (Thermo). The conjugated VH20 was incubated with 293T and 293T-ALK cells for 24 hours at different concentrations. VH20 internalization was measured by a flow cytometer.

293T cells [9] = assay: Internalization of pHrodo Deep Red labelled VH20, 293T; assay type: cell-based; conditions: pHrodo Deep Red conjugated VH20, 24 hours, flow cytometer
Method: as §4

[10] = target: T3, ALK-Fc, a fusion of the ALK extracellular domain and human IgG1 Fc (human, UniProt Q9UM73 19-1038); assay: ELISA, ALK-Fc coated, anti-Flag-HRP detection
T3 construct: not shown: human IgG1 Fc
T3 sequence (Q9UM73 19-1038): as the sequence (Q9UM73 19-1038 limits assumed) above
Method: The VHs were further characterized. First, the binding affinities of the VHs were studied in an ELISA assay using a fusion protein comprising the ALK extracellular domain fused to the human IgG1 Fc (ALK-Fc). ELISA plates (Corning 3690; Tewksbury, MA) were coated with 50 μl antigen (5 μg/ml diluted with 1×PBS) at 4° C. overnight. The next day, blocking was performed with 150 μL 5% milk-PBS (Bio-RAD; Hercules, CA) at room temperature for two hours. Then, the plates were washed with 0.05% PBST three times. 3-fold serial diluted VH antibodies (in 5% PBS-Milk) was added into each well and incubated at room temperature for 1 hour and then washed with PBST 4 times. Next, 50 μL anti-Flag-HRP (1:1000 dilution in 5% PBS-Milk, Thermo; Waltham, MA) was added into each well and incubated at room temperature for 1 hour and then washed 5 times with PBST. 50 μL 3,3′,5,5′-tetramethylbenzidine (TMB) substrate (Sigma; St. Louis, MO) was added into each well and color was allowed to develop for 1-2 minutes before stopping with 50 μL H₂SO₄ (1M, Sigma). Plates were read at 450 nm absorbance. The ELISA results were analyzed using GraphPad Prism 9.0.2.

[11] = target: T1, ALK extracellular domain expressed on the cell surface of 293T cells (293T-ALK); assay: Flow cytometry binding of VHs to 293T-ALK cells; design: expressed in transfected cells; host or cells: 293T; conditions: VH at 1 μM, anti-FLAG-PE detection
T1 sequence (Q9UM73 733-960 limits assumed): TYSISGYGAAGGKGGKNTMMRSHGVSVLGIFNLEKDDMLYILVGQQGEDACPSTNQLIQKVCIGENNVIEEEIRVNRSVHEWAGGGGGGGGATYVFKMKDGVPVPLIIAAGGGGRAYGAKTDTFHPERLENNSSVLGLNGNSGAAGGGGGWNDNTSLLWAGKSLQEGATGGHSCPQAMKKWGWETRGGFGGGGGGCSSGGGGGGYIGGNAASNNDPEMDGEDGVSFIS
Method: as §1, §2

293T-ALK cells [12] = assay: Anti-ALK CAR-T cell cytotoxicity (LDH release); assay type: cell-based; conditions: CAR-T cells comprising the VH, effector:target 1.25:1 to 20:1, 48 hours
Method: The cytotoxicity of anti-ALK CAR-T cells against 293T and 293T-ALK cells was also studied. Anti-ALK CAR-T cells (effector cells) were incubated with 293T and 293T-ALK cells at the effector: target ratios of 1.25:1, 2.5:1, 5:1, 10:1 and 20:1 for 48 hours in a 96-well cell culture plate (Corning). The co-cultures of CAR-T cells with 293T cells were used as negative controls. Cytotoxicity was determined by detecting specific lactate dehydrogenase (LDH) released into the medium from the target cells with cytotoxicity LDH detection kit (Promega) according to the manufacturer's instructions. Percent cytotoxicity was calculated with the following formula: Cytotoxicity (%)=(Experimental lysis−Effector spontaneous lysis−Target spontaneous lysis)/(Target maximum lysis−Target spontaneous lysis)×100%. Anti-ALK CAR-T cells were co-cultured with 293T cells as negative controls.

T1 sequence (Q9UM73 19-1038): as the sequence (Q9UM73 19-1038 limits assumed) above

B1: VH20-OKT3-Fc BiTE (bispecific antibody, part only; not given: anti-CD3 scFv, linkers and Fc, not shown: a dimerising Fc or GST)
chain (part 1 of 2), part: EVQLVESGGGVVQPGRSLRLSCAASGFTFSSYAMHWVRQAPGKGLEWVAAIWYDGSNQYYADSVKGRFTISRDDSTNTLYLQMNSLRAEDTALYYCAKSSYYDSSGYYFPYGYWGQGTLVTVSS
chain (part 2 of 2), part: HHHHHH
**Q.** What does the source list for B1?
**A.** cytotoxicity IC50 (LDH release, activated Pan-T cells, E:T=4:1, 24 hours) [1]: 0.01 nM; cytotoxicity IC50 on IMR32 cells (LDH release, activated Pan-T cells, E:T=4:1, 24 hours) [2]: 0.1 nM; cytotoxicity IC50 on SY5Y cells (LDH release, activated Pan-T cells, E:T=4:1, 24 hours) [2]: 0.15 nM

B2: VH20 (other)
VH: EVQLVESGGGVVQPGRSLRLSCAASGFTFSSYAMHWVRQAPGKGLEWVAAIWYDGSNQYYADSVKGRFTISRDDSTNTLYLQMNSLRAEDTALYYCAKSSYYDSSGYYFPYGYWGQGTLVTVSS
notes: Single-domain antibody (isolated VH domain) found by phage panning on the ALK G-rich domain antigen; For the internalization assay it was labelled with pHrodo Deep Red dye
**Q.** For B2, which “non-specific binding with 293T cells” value (293T cells [3]) is on record?
**A.** The value was “no significant non-specific binding”.

**Q.** What about the “aggregation by DLS” value [4] of the same molecule?
**A.** The value was “lower aggregation”.

**Q.** What about the “oligomeric state by SEC” value [5] of the same molecule?
**A.** Its value is “dimer”.

**Q.** And the “competition with KTN0239-IgG” value (ALK)?
**A.** The value was “not in competition”.

**Q.** And the “binding cell surface ALK on IMR32 cells” value [6]?
**A.** The value was “capable of binding”.

**Q.** And the “binding cell surface ALK on SY5Y-D3 cells” value [7]?
**A.** The value was “capable of binding”.

**Q.** What about the “binding to SK-N-AS cells” value (SK-N-AS cells) of the same molecule?
**A.** The value was “not”.

**Q.** What about the “internalization into 293T-ALK cells” value (293T-ALK cells [8]) of the same molecule?
**A.** Its value is “effectively internalized”.

**Q.** What about the “non-specific internalization in 293T cells” value (293T cells [9]) of the same molecule?
**A.** Its value is “no non-specific internalization was detected”.

**Q.** And the EC50 [10]?
**A.** The EC50 was ~0.4 nM.

**Q.** And the “binding with 293T-ALK cells” value [11]?
**A.** The value was “good binding”.

B3: VH78 (other)
VH: EVQLVESGGGVVQPGRSLRLSCAASGFTFSSYAMHWVRQAPGKGLEWMGIIYPGDSDTRYSPSFQGHVTISRDDSTNTLYLQMNSLRAEDTATYYCARERGWQDAFDIWGQGTLVTVSS
notes: Single-domain antibody (isolated VH domain) found with the ALK G-T domain antigen
**Q.** Which results are given for B3?
**A.** non-specific binding with 293T cells (293T cells [3]): no significant non-specific binding; cytotoxicity of anti-ALK CAR-T cells (293T-ALK cells [12]): greater cytotoxicity; EC50 [10]: ~1.32 nM; binding with 293T-ALK cells [11]: good binding
